Laboratory results: paper PMC6079037
Several values for one entry are separate records, joined by “and”; a condition that tells them apart may be missing. Identical values can stand only once.

Key:
[1] = molecular target: HmTSPcc, 25aa synthetic peptide corresponding to HmTSP residues 249-273 (Hydra magnipapillata); test: AUC; sedimentation equilibrium; HmTSPcc 400 uM in PBS, 20 °C, 30,000-46,000 rpm; fitted to a single, ideal species model
[2] = molecular target: NoHmTSP.V5, truncated HmTSP comprising the N-terminal domain plus the putative oligomerization region (aa 1-296) (Hydra magnipapillata); test: non-reducing SDS-PAGE and immunoblot; V5-tagged proteins from conditioned media of transfected COS7 cells, collected on Talon resin, boiled in SDS sample buffer without DTT; 7% SDS-polyacrylamide gels; V5 antibody blot
[3] = molecular target: full-length HmTSP-His (Hydra magnipapillata thrombospondin) (Hydra magnipapillata); test: non-reducing SDS-PAGE and immunoblot; HmTSP-His from lysates of transfected HEK293T cells, collected on Ni-NTA, eluted in non-reducing SDS sample buffer; 4-20% gradient gels; anti-penta-His blot; laminin chains and prestained markers as size references

With “HmTSPcc, 25aa synthetic peptide corresponding to HmTSP residues 249-273” the stoichiometry N (x monomer mass) [1] was 2.98.

“NoHmTSP.V5, truncated HmTSP comprising the N-terminal domain plus the putative oligomerization region (aa 1-296) (domain or fragment)” was tested, and the stoichiometry N [2] was 5 and 4.

“full-length HmTSP-His (Hydra magnipapillata thrombospondin) (natural protein)” was tested, and the stoichiometry N [3] was > 4.
